Measured values as given in article PMC8959893, “T-Cell Responses to Immunodominant Listeria Epitopes Limit Vaccine-Directed Responses to the Colorectal Cancer Antigen, Guanylyl Cyclase C” (Frontiers in Immunology, 2022).

Biological target: T1, peptide-H-2K^d complex (Mus musculus, UniProt P01902)
T1 construct: expressed in transfected cells; host or cells: RMA-S (TAP-deficient), stably expressing H-2K^d; provided by Dr. Sean Murphy (University of Washington)
T1 sequence (P01902 22-368): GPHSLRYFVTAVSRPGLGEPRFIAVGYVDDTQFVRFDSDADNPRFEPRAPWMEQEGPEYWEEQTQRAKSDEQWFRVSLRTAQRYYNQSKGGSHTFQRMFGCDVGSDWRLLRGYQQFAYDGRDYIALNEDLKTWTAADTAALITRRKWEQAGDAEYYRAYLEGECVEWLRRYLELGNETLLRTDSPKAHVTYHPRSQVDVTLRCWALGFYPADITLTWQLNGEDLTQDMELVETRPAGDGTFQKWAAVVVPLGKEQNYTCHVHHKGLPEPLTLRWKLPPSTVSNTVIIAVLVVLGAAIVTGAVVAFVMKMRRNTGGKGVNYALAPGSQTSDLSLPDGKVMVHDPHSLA
T1 sequence (P01887 21-119 partner): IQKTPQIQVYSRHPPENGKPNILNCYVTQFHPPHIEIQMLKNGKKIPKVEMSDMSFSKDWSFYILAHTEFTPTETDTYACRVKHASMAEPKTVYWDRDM
Format: cell-based
Conditions: for half-life (t1/2) of peptide-H-2K^d complex: Figure 4D, flow cytometry MFI, nonlinear regression of two experiments
Procedure: As previously described ([27]), RMA-S-H-2K^d cells were incubated overnight at 26°C with 30 ug/mL of each peptide. In the morning, cells were incubated 2 h at 37°C, washed 3x with PBS to remove unbound peptide, and incubated an additional 2, 4, or 6 h at 37°C. Cells were then stained with anti-H-2K^d-PE antibody (Invitrogen, Clone SF1-1.1.1), and surface H-2K^d was quantified as mean fluorescence intensity (MFI) by flow cytometry. The percent change in surface peptide-H-2K^d complexes was calculated using the formula, MFI^peptide−MFI^no peptide/MFI^0 hrs−MFI^no peptide×100 ([28]). The t1/2 for the peptide-MHC complex was calculated by nonlinear regression.

[1] = RMA-S-H-2K^d cells, 30 ug/mL peptide overnight at 26°C, 2 h at 37°C, washed, additional 2, 4 or 6 h at 37°C

Row | Substance | Dissociation from MHC, fold faster than Lm-derived peptide-H-2K^d complexes (Figure 3, stated in Discussion) [fold] | t1/2 of peptide-H-2K^d complex (Figure 3C, RMA-S-H-2K^d cells, 30 ug/mL peptide overnight at 26°C, 2 h at 37°C, washed, additional 2, 4 or 6 h at 37°C, anti-H-2K^d-PE MFI by flow cytometry, nonlinear regression, representative of two experiments) [h] | half-life (t1/2) of peptide-H-2K^d complex [1] [h]
1 | GUCY2C254-262: dominant H-2K^d-restricted CD8+ T-cell epitope of mouse guanylyl cyclase C, residues 254-262 (SFYDVKGDL; UniProt Q3UWA6 254-262, looked up, fragment) | > 5 | 1.8 | 2.1
2 | GUCY2CF255Y: GUCY2C254-262 peptide variant with F255Y point mutation at an H-2K^d anchoring residue (SYYDVKGDL; UniProt Q3UWA6 254-262, looked up, variant F255Y) | – | – | 8.3
3 | GUCY2CL262I: GUCY2C254-262 peptide variant with L262I point mutation at an H-2K^d anchoring residue (SFYDVKGDI; UniProt Q3UWA6 254-262, looked up, variant L262I) | – | – | 1.0
